Measured values taken from paper PMC10512945.

Molecular target: N-terminally GST-tagged human GBF1 (containing the Y828A mutation that confers BFA resistance) (human)
Assay: negative staining electron microscopy; purified GST-GBF1 on glow-discharged carbon grids, washed with 20 mM Bis-Tris pH 7.0, 50 mM NaCl, 1 mM DTT, stained with 1% uranyl formate; 2D class averages from 81,522 particles, compared with AlphaFold-predicted monomers

- stoichiometry N: 2
Substance: N-terminally GST-tagged human GBF1 (containing the Y828A mutation that confers BFA resistance) (natural protein)
